# From publication PMC12884264
# What was measured:
# [1] = target: computationally designed GFP(+16)BE (positive charges mainly at both ends of the barrel) [GFP: P42212]; experiment: SEC
# [2] = target: supercharged green fluorescent protein GFP(+36) [GFP: P42212]; experiment: SEC
# [3] = target: supercharged green fluorescent protein GFP(+28) [GFP: P42212]; experiment: SEC
# [4] = target: Archaeoglobus fulgidus ferritin, wildtype (Archaeoglobus fulgidus) (UniProt O29424); experiment: time-resolved fluorescence anisotropy
# [5] = target: Archaeoglobus fulgidus ferritin, wildtype (Archaeoglobus fulgidus) (UniProt O29424); experiment: SEC + other: UV/Vis absorbance
Kd [1] [µM],Kd [2] [µM],stoichiometry N (GFP per 24 mer) [2],Kd [3] [µM],stoichiometry N (AfFtn2 per GFP(+36)) [4],stoichiometry N (GFP(+36) per cage) [4],stoichiometry N (GFP per ferritin cage) [5],stoichiometry N (GFP(+36) per 24 mer ferritin) [5],stoichiometry N (GFP(+36) per AfFtn24) [5],stoichiometry N (GFP(+36) per ferritin 24 mer) [5],Substance
51.5,22.7,3,36.7,–,–,–,–,–,–,"Archaeoglobus fulgidus ferritin, wildtype (from UniProt O29424 1-173) (natural protein)"
–,–,–,–,12,1,2 to 3,0.7,1.2,4 to 5,supercharged green fluorescent protein GFP(+36) (from UniProt P42212 1-238)
